Assay results from patent US20250381255A1 (ANOKION, published 2025).
Where a chain is given by its changes, count along the chain named.

Assays:
[1] = target: T1, human asialoglycoprotein receptor 1 (ASGR1) extracellular domain (human, UniProt P07306 62-291); test: apparent KD from biochemical characterisation; method not named for this value (Example 1 describes Octet BLI: IgG on AHC sensors, 100 nM ASGR1, 1:1 model); mAb-60819
T1 construct: The methods speak of 'human ASGR1-His'; The results paragraph says only 'ASGR1'; also called human ASGR1-His; ASGR1 ECD
T1 sequence: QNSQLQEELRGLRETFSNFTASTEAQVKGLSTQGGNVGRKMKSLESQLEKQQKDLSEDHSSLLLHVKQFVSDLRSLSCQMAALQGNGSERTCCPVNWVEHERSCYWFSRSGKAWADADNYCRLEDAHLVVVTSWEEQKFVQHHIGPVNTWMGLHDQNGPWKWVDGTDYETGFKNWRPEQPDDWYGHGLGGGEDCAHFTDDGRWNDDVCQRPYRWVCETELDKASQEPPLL

[2] = target: T1, human asialoglycoprotein receptor 1 …; test: apparent KD from biochemical characterisation; method not named for this value (Example 1 describes Octet BLI: IgG on AHC sensors, 100 nM ASGR1, 1:1 model); mAb-60856
[3] = target: T1, human asialoglycoprotein receptor 1 …; test: apparent KD from biochemical characterisation; method not named for this value (Example 1 describes Octet BLI: IgG on AHC sensors, 100 nM ASGR1, 1:1 model)
[4] = target: T1, human asialoglycoprotein receptor 1 …; test: apparent KD from biochemical characterisation; method not named for this value (Example 1 describes Octet BLI: IgG on AHC sensors, 100 nM ASGR1, 1:1 model); mAb-60869

B1: mAb-60819 (antibody, V domains shown)
VH: QVQLVQSGAEVKKPGSSVKVSCKASGGTFSNYAISWVRQAPGQGLEWMGGIIPIFGTANYAQKFQGRVTITADESTSTAYMELSSLRSEDTAVYYCAREARVAGTRPRGFDIWGQGTMVTVSS
VL: EIVLTQSPATLSLSPGERATLSCRASQSVSSYLAWYQQKPGQAPRLLIYDASNRATGIPARFSGSGSGTDFTLTISSLEPEDFAVYYCQQLNNFPPTFGGGTKVEIK
Kd [1]: 9.29 nM

B2: mAb-60856 (antibody, V domains shown)
VH: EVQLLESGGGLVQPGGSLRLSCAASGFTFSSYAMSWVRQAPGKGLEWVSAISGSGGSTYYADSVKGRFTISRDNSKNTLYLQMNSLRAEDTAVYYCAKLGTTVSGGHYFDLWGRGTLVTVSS
VL: B1 VL with N53K, L91D, N92S, F94H, P96L
notes: also called anti-ASGR1 antibody mAb-60856
Kd [2]: 9.29 nM

B3: mAb-60881 (antibody, V domains shown)
VH: QVQLQESGPGLVKPSETLSLTCAVSGYSISSGYYWGWIRQPPGKGLEWIGSIYHSGSTYYNPSLKSRVTISVDTSKNQFSLKLSSVTAADTAVYYCAREAGYPERGYGMDVWGQGTTVTVSS
VL: EIVMTQSPATLSVSPGERATLSCRASQSVSSNLAWYQQKPGQAPRLLIYGASTRATGIPARFSGSGSGTEFTLTISSLQSEDFAVYYCQQYFHHPFTFGGGTKVEIK
notes: Made as IgG
Kd [3]: ~3 nM

B4: mAb-60869 (antibody, V domains shown)
VH: EVQLLESGGGLVQPGGSLRLSCAASGFTFSNYAMSWVRQAPGKGLEWVSAISGSGGSTYHADSVKGRFTISRDNSKNTLYLQMNSLRAEDTAVYYCARDAPYRGGHYFDLWGRGTLVTVSS
VL: B1 VL with N92A, N93S, F94W
notes: also called anti-ASGR1 antibody mAb-60869
Kd [4]: 3.22 nM
